The target of experiment [1] is CD11c_(614-682b)-YFP/CD18 chimera on CHO cells (human) (UniProt P11215). In words: flow cytometry on cells; 2x10^5 CHO cells expressing YFP-fused integrins with different concentrations of CyaA-biotin; streptavidin-PE; mean fluorescence intensities against CyaA concentration. A general note: Flow cytometry measures light scatter and fluorescence of single cells or particles in a stream.

The target in experiment [2] is CD11b_(342-424c)/CD18 chimera on CHO cells (human) (UniProt P11215). In words: flow cytometry on cells.
Experiment [3] concerns the target CR3 chimera with residues 686 to 1152 of CD11b replaced by the corresponding segment of CD11c, with CD18, on CHO cells (human) (UniProt P11215). In words: flow cytometry on cells.
In experiment [4] the target is CR3 chimera with residues 33 to 115 of CD11b replaced by the corresponding segment of CD11c, with CD18, on CHO cells (human) (UniProt P11215). Put plainly: flow cytometry on cells.
Experiment [5] addresses CD11b_(614-682c)/CD18 chimera on CHO cells (human) (UniProt P11215). In words: flow cytometry on cells.

“adenylate cyclase toxin-hemolysin (CyaA) of Bordetella pertussis, intact (from UniProt P0DKX7 1-1706) (natural protein)”: the fold higher CyaA binding than CD11c-YFP/CD18 in experiment [1] worked out at 24 fold. In experiment [1], this substance came in with a fold lower CyaA binding than CD11b-YFP/CD18 of 1.7 fold. The CyaA binding, percent of binding to intact CD11b/CD18 amounted to 61% in experiment [2], 89% in experiment [3] and 72% in experiment [4]. The substance also returned a fold decrease of CyaA binding against intact CR3 in experiment [5] of 10 fold.

(Values after paper PMC4755762.)
